Experimental data reported in patent US11939397B2, “ENTPD2 antibodies, combination therapies, and methods of using the antibodies and combination therapies” (Novartis AG, priority 2018, dated 2024).

Biological target: T1, ENTPD2 (Homo sapiens, UniProt Q9Y5L3)
T1 sequence (Q9Y5L3 1-495): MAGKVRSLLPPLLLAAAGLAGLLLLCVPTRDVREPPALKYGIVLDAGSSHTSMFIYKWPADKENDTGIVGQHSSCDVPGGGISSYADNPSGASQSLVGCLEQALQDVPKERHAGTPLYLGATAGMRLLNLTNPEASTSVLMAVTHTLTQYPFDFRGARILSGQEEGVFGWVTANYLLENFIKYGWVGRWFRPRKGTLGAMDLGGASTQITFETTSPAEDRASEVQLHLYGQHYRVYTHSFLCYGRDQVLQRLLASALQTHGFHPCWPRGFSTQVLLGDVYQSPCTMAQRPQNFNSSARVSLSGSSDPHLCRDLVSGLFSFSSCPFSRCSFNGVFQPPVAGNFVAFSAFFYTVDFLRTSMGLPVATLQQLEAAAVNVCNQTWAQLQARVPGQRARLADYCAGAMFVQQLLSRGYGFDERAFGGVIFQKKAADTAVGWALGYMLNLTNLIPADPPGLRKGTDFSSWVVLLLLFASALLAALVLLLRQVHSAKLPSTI
Test: FACS binding to human ENTPD2 expressing cells (NIH/3T3)
Parameters: expressed in transfected cells
Text: Ten days after fusion, hybridoma plates were screened for the presence of ENTPD2-specific antibodies using flow cytometry to confirm specific binding of candidate antibodies to cell surface-expressed human ENTPD2 using three cell lines: parental NIH/3T3 cells, NIH/3T3 cells stably overexpressing human ENTPD2, and RKO cells (ATCC®), which expresses endogenous human ENTPD2. Cells were rinsed thoroughly with PBS, treated with Accutase (Millipore #SCR005) to lift them from the growth plates, and resuspended in cold PBS. Cells were biotinylated and labeled with a fluorescent dye according to manufacturer's instructions (FluoReporter™ Cell-Surface Biotinylation Kit, Thermo Fisher Scientific Cat #F-20650; PE-Cy7 Steptavidin, ThermoFisher Scientific Cat #SA1012). Cells were resuspended at approximately 1×10^6 cells/ml in FACS buffer (PBS with 2% FBS+0.1% NaN3). In a 384-well plate, 20 μL of hybridoma supernatant was pre-seeded and 20 μL of cell suspension was added. […] Geometric mean fluorescence intensity was calculated on live single cells using FlowJo™ software.
FACS screening: Specific binding of candidate antibodies to endogenously expressed ENTPD2 was assessed by flow cytometry. […] Geometric mean fluorescence intensity was calculated on live single cells using FlowJo software.

B1: mAb13: anti-mouse ENTPD2 monoclonal antibody, VH SEQ ID NO: 191, VL SEQ ID NO: 202 (antibody, V domains shown)
VH: QVQLVQSGAELKQPGQSVKISCKASGYTFTHYGMNWVKQAPGQGLKWMGWINTDTGNPTYADDFKGRFVFSLDTSVSTAYLQISNLKNEDTATYYCVRYGTLYSGYGFFFDSWGQGTLVTVSS
VL: DIMMTQSPSSLSVSAGEKATITCKSSQSLFNSNTNKNYLNWYLQKPGQSPKLLFYYASTRHTGVPDRFIGSGSGTDFTLTITSVQDEDLADYYCQQWYSYPWTFGPGTKLEIK
binding to human ENTPD2: no binding
